The values below come from paper PMC13507320, “Synergistic effect of PIP2 and PIP3 on membrane-induced phase separation of integrin complexes” (Biophysical Journal, 2025).

Assay [1] has as its target T1, Atto643-labeled his6-β1 integrin cytoplasmic tail peptide (UniProt P05556 752-798, Atto643 label (position not given)).
T1 construct: integrin β1 cytoplasmic tail; Tethered by its his6 tag to DGS-NTA-Ni lipids of the supported lipid bilayer; also called β1 tails; his6-tagged integrin β1 tails; source: synthetic peptide (synthesized and purified by the MPIB Core Facility)
T1 peptide (looked up): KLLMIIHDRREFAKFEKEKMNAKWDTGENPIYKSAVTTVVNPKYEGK
Kind of assay: FRAP of the tethered partner on supported lipid bilayers (slowdown of diffusion); his6-β1 tails tethered to DGS-NTA-Ni on 5% PIP3 supported lipid bilayer; 1 μM kindlin or 1 μM talin, 30-min incubation; HEPES buffer pH 7.4, 150 mM KCl, 2.5 μM ZnCl2; t1/2_fast against β1 tails alone. Particulars: both partners purified.

Assay [2] has as its target T1, Atto643-labeled his6-β1 integrin …. Kind of assay: FRAP of the tethered partner on supported lipid bilayers (slowdown of diffusion); his6-β1 tails tethered to DGS-NTA-Ni on 5% PIP2 supported lipid bilayer; 1 μM kindlin or 1 μM talin, 30-min incubation; HEPES buffer pH 7.4, 150 mM KCl, 2.5 μM ZnCl2; t1/2_fast against β1 tails alone. The following applies: both partners purified.

B1: Kindlin-2 (natural protein, UniProt Q96AC1 1-680, looked up)
chain: MALDGIRMPDGCYADGTWELSVHVTDLNRDVTLRVTGEVHIGGVMLKLVEKLDVKKDWSDHALWWEKKRTWLLKTHWTLDKYGIQADAKLQFTPQHKLLRLQLPNMKYVKVKVNFSDRVFKAVSDICKTFNIRHPEELSLLKKPRDPTKKKKKKLDDQSEDEALELEGPLITPGSGSIYSSPGLYSKTMTPTYDAHDGSPLSPTSAWFGDSALSEGNPGILAVSQPITSPEILAKMFKPQALLDKAKINQGWLDSSRSLMEQDVKENEALLLRFKYYSFFDLNPKYDAIRINQLYEQAKWAILLEEIECTEEEMMMFAALQYHINKLSIMTSENHLNNSDKEVDEVDAALSDLEITLEGGKTSTILGDITSIPELADYIKVFKPKKLTLKGYKQYWCTFKDTSISCYKSKEESSGTPAHQMNLRGCEVTPDVNISGQKFNIKLLIPVAEGMNEIWLRCDNEKQYAHWMAACRLASKGKTMADSSYNLEVQNILSFLKMQHLNPDPQLIPEQITTDITPECLVSPRYLKKYKNKQITARILEAHQNVAQMSLIEAKMRFIQAWQSLPEFGITHFIARFQGGKKEELIGIAYNRLIRMDASTGDAIKTWRFSNMKQWNVNWEIKMVTVEFADEVRLSFICTEVDCKVVHEFIGGYIFLSTRAKDQNESLDEEMFYKLTSGWV
notes: Kindlin-2; the species may be mouse there; source: E. coli (DE3) Rosetta 2, purified (Ni-NTA IMAC, SenP2 digest, size-exclusion chromatography); not shown: His-SUMO, N-terminal, cleaved
Turning to B1, the “fold slowdown of β1 tail diffusion against β1 tails alone” value turned out to be 3.3 times in assay [1] and 2.6 times in assay [2].
